In patent CN108299557A (HANGZHOU HANSI BIOMEDICAL CO LTD, dated 2018):

Assays:
PD-1-hIgGFc抗原 [1] = target: T1, PD-1-hIgGFc抗原 (UniProt Q15116 25-167, limits assumed); experiment: competition ELISA, PD-1-hIgGFc coated, competitor PDL1-mIgG2aFc 0.6 ug/ml, HRP anti-mouse IgG
T1 construct: not shown: human IgG Fc

PD-1-his抗原 = target: T2, PD-1-his抗原 (UniProt Q15116 25-167, limits assumed); experiment: binding ELISA, PD-1-his coated, HRP anti-human IgG
T2 construct: not shown: his tag

PD-1-hIgGFc抗原 [2] = target: T1, PD-1-hIgGFc抗原; experiment: competition ELISA, PD-1-hIgGFc coated, competitor PDL2-his tag 1.0 ug/ml, HRP anti-his tag

T1 sequence (Q15116 25-167 limits assumed): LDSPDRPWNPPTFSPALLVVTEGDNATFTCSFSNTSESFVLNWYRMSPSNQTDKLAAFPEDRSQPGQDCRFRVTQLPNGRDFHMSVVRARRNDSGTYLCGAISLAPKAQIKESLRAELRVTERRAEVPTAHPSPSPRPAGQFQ
T2 sequence (Q15116 25-167 limits assumed): as above

B1: 人源化抗体H8L2 (抗PD-1的IgG类抗体变体) (antibody)
heavy: EVQLVQSGGGLVQPGGSLKLSCAASGFTFSSYGMSWVRQAPGKGLDWVATISGGGRDTYYPDSVKGRFTISRDNSKNNLYLQMNSLRAEDTALYYCARQKGEAWFAYWGQGTLVTVSSASTKGPSVFPLAPCSRSTSESTAALGCLVKDYFPEPVTVSWNSGALTSGVHTFPAVLQSSGLYSLSSVVTVPSSSLGTKTYTCNVDHKPSNTKVDKRVESKYGPPCPPCPAPEFLGGPSVFLFPPKPKDTLMITRTPEVTCVVVDVSQEDPEVQFNWYVDGVEVHNAKTKPREEQFNSTYRVVSVLTPLHQDWLNGKEYKCKVSNKGLPSSIEKTISKAKGQPREPQVYTLPPSQEEMTKNQVSLTCLVKGFYPSDIAVEWESNGQPENNYKTTPPVLDSDGSFFLYSRLTVDKSRWQEGNVFSCSVMHEALHAHYTQKSLSLSLGK
light: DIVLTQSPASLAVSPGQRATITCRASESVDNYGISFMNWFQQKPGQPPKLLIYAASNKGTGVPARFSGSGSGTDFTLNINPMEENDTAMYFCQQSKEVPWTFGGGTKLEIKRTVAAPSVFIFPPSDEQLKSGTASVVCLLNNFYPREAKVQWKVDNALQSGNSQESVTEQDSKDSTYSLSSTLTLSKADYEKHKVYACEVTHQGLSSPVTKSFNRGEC
notes: ACC CCC CTG; CAC GCC CAC) confirms; The constant region looks like IgG4; also called 18A10 H8L2; H8L2突变体
In the case of B1, the EC50 (PD-1-hIgGFc抗原 [1]) is reported as 0.474 nM, the EC50 (PD-1-his抗原) is reported as 0.04 nM and the EC50 (PD-1-hIgGFc抗原 [2]) is reported as 1.83 nM.
